Assay results as given in US20170247476A1 (Amgen, published 2017).

Columns and labels:
human CD3ε = target: T1, human CD3ε (human, UniProt P07766 22-207); assay: FACS on T cells
T1 construct: On T cells CD3ε is part of the TCR-CD3 complex; also called T cells

HER2 = HER2 (human, UniProt P04626 23-1255); assay: cell-based or functional assay

| Binder | binding result (human CD3ε) | also measured |
| --- | --- | --- |
| CD3ε(1-27)-MMP-2csV1-aCD3-aHER2-Xbody, digested with MMP-2 (bispecific antibody) chain 1: not shown chain 2: IAGQEVQLVESGGGLVQPGGSLKLSCAASGFTFNSYAMNWVRQAPGKGLEWVARIRSKYNNYATYYADSVKGRFTISRDDSKNTAYLQMNNLKTEDTAVYYCVRHGNFGNSYVSWWAYWGQGTLVTVSSGGGGSGGGGSELVMTQTPSSLSASLGDRVTISCRASQDISNYLNWYQQKPDGTVKLLIYYTSRLHSGVPSRFSGSGSGTDYSLTISNLEQEDIATYFCQQGNTLPLTFGAGTKLEIKASTKGPSVFPLAPCSRSTSESTAALGCLVKDYFPEPVTVSWNSGALTSGVHTFPAVLQSSGLYSLSSVVTVPSSNFGTQTYTCNVDHKPSNTKVDKTVGGGGSAAAEPKSSDKTHTCPPCPAPEAAGGPSVFLFPPKPKDTLMISRTPEVTCVVVDVSHEDPEVKFNWYVDGVEVHNAKTKPREEQYNSTYRVVSVLTVLHQDWLNGKEYKCKVSNKALPAPIEKTISKAKGQPREPQVYTLPPSREEMTKNQVSLTCLVKGFYPSDIAVEWESNGQPENNYDTTPPVLDSDGSFFLYSDLTVDKSRWQQGNVFSCSVMHEALHNHYTQKSLSLSPGK | – | EC50 Cytolysis (ng/mL), +MMP2; TDCC of SKOV-3 cells with pan T cells (HER2): 0.347 ng/mL |
| CD3ε(1-27)-MMP-2csV1-aCD3-aHER2-Xbody (bispecific antibody) chain 1: not shown chain 2: QDGNEEMGGITQTPYKVSISGTTVILTGGGGSGGGGSGGGGSGPLGIAGQEVQLVESGGGLVQPGGSLKLSCAASGFTFNSYAMNWVRQAPGKGLEWVARIRSKYNNYATYYADSVKGRFTISRDDSKNTAYLQMNNLKTEDTAVYYCVRHGNFGNSYVSWWAYWGQGTLVTVSSGGGGSGGGGSELVMTQTPSSLSASLGDRVTISCRASQDISNYLNWYQQKPDGTVKLLIYYTSRLHSGVPSRFSGSGSGTDYSLTISNLEQEDIATYFCQQGNTLPLTFGAGTKLEIKASTKGPSVFPLAPCSRSTSESTAALGCLVKDYFPEPVTVSWNSGALTSGVHTFPAVLQSSGLYSLSSVVTVPSSNFGTQTYTCNVDHKPSNTKVDKTVGGGGSAAAEPKSSDKTHTCPPCPAPEAAGGPSVFLFPPKPKDTLMISRTPEVTCVVVDVSHEDPEVKFNWYVDGVEVHNAKTKPREEQYNSTYRVVSVLTVLHQDWLNGKEYKCKVSNKALPAPIEKTISKAKGQPREPQVYTLPPSREEMTKNQVSLTCLVKGFYPSDIAVEWESNGQPENNYDTTPPVLDSDGSFFLYSDLTVDKSRWQQGNVFSCSVMHEALHNHYTQKSLSLSPGK | – | EC50 Cytolysis (ng/mL), -MMP2; TDCC of SKOV-3 cells with pan T cells (HER2): 4.41 ng/mL |

Further lines, with some results ahead:

| binding result (human CD3ε) | Binder | also measured |
| --- | --- | --- |
| no binding | CD3ε(1-27)-aCD3-aHER2-BiFc (bispecific antibody, Non-cleavable linker between the CD3ε(1-27) fragment and the Fc) chain 1: not shown chain 2: QDGNEEMGGITQTPYKVSISGTTVILTGGGGSGGGGSGGGGSAAAEPKSSDKTHTCPPCPAPEAAGGPSVFLFPPKPKDTLMISRTPEVTCVVVDVSHEDPEVKFNWYVDGVEVHNAKTKPREEQYNSTYRVVSVLTVLHQDWLNGKEYKCKVSNKALPAPIEKTISKAKGQPREPQVYTLPPSREEMTKNQVSLTCLVKGFYPSDIAVEWESNGQPENNYDTTPPVLDSDGSFFLYSDLTVDKSRWQQGNVFSCSVMHEALHNHYTQKSLSLSPGK | – |
| no binding | CD3ε(1-27)-MMP-2cs-aCD3-aHER2-BiFc (bispecific antibody, Tested undigested, with the MMP2 cleavage site intact; also called CD3ε(1-27)-MMP-cs-aCD3-aHER2-BiFc) chain 1: not shown chain 2: QDGNEEMGGITQTPYKVSISGTTVILTGPLGIAGQAAAEPKSSDKTHTCPPCPAPEAAGGPSVFLFPPKPKDTLMISRTPEVTCVVVDVSHEDPEVKFNWYVDGVEVHNAKTKPREEQYNSTYRVVSVLTVLHQDWLNGKEYKCKVSNKALPAPIEKTISKAKGQPREPQVYTLPPSREEMTKNQVSLTCLVKGFYPSDIAVEWESNGQPENNYDTTPPVLDSDGSFFLYSDLTVDKSRWQQGNVFSCSVMHEALHNHYTQKSLSLSPGK | – |
